These results are taken from patent US20160347802A1 (MAX PLANCK GESELLSCHAFT ZUR FOERDERUNG DER WISSENSCHAFTEN E …, published 2016).

B1: zebrafish DraxinA, AVEXIS prey or bait protein (ligand)
chain: SEISSDNFKQSLTPSTTTSKEHPETGLTGGRQQKRHWSGKERDSAGLFSQRHMDRLEDDGTSMEGLSPVRLEMGPGDTMKAEVHGEVRASAQMRQGSHPAEGELNRKGRRHSHRLLAEHRKHGGKKDKGRGKGDLSDPEPELDSLLKDLNAFEDGLNTSPPNYNSVPLNEVPSPLSPILVTTAIKGHPPTLPPASTKPQKSSQGRTQGEVMPTLDMTLFDWTDYEDMKPADSWPSNKRKDKRRSKNKSNGNTTTEAGIVEPCDHHLDCLSGSCCDLREFECKPHNRGLNNKCFDDCMCEEGLRCYAKFHRKRRVTRRRGRCVDPESVNSNQGAFITV
notes: Prey and bait forms of the same protein are kept as one molecule; Preys are pentameric except in the monomeric-prey experiments; also called DraxinA prey protein
B2: human DRAXIN, AVEXIS prey or bait protein (ligand)
chain: GALAPGTPARNLPENHIDLPGPALWTPQASHHRRRGPGKKEWGPGLPSQAQDGAVVTATRQASRLPEAEGLLPEQSPAGLLQDKDLLLGLALPYPEKENRPPGWERTRKRSREHKRRRDRLRLHQGRALVRGPSSLMKKAELSEAQVLDAAMEESSTSLAPTMFFLTTFEAAPATEESLILPVTSLRPQQAQPRSDGEVMPTLDMALFDWTDYEDLKPDGWPSAKKKEKHRGKLSSDGNETSPAEGEPCDHHQDCLPGTCCDLREHLCTPHNRGLNNKCFDDCMCVEGLRCYAKFHRNRRVTRRKGRCVEPETANGDQGSFINV
notes: It was tested in both bait and prey orientations

Data set [1] deals with the molecule itself. Kind of data set: AVEXIS, pentameric prey zebrafish DraxinA on bait zDraxinA.
Data set [2] concerns the molecule itself. Kind of data set: AVEXIS, prey on bait zDraxinA, upper value; white = No binding.
Data set [3] addresses T1, zebrafish DraxinB, AVEXIS protein (zebrafish).
T1 chain: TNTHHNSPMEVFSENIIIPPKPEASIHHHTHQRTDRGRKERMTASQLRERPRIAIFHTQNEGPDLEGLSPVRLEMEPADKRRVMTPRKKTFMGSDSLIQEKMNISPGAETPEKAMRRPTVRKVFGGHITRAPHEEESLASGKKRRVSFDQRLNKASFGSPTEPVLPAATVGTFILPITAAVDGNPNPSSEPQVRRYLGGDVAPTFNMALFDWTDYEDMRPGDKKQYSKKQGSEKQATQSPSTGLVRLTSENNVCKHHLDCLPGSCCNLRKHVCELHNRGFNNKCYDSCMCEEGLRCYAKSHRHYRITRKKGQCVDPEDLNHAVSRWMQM
As to the kind of experiment: AVEXIS, pentameric prey zebrafish DraxinA on bait zDraxinB.

The target in data set [4] is T1, zebrafish DraxinB, AVEXIS protein. Kind of data set: AVEXIS, prey on bait zDraxinB, lower value; white = No binding.
For data set [5] the target is unchanged. As to the kind of experiment: AVEXIS, prey on bait zDraxinB, upper value; white = No binding.
Data set [6] deals with B2. Kind of data set: AVEXIS, pentameric prey human DRAXIN on bait zDraxinA.
Data set [7] deals with the molecule itself. Kind of data set: AVEXIS, prey on bait zDraxinA, lower value; white = No binding.
Data set [8] addresses T2, Matn4 ECD, mono-biotinylated bait protein (positive control).
T2 construct: extracellular domain; also called Matn4-bait
As to the kind of experiment: AVEXIS, prey on bait Matn4 (+), positive control for the prey; dark = Binding. The text has this: (§1) The Matn4-bait served as an internal prey-protein control and was used for normalization of the A486 nm values; conditioned medium (CM) serves as negative control; n=3.

Data set [9] deals with T3, human Netrin-G1, AVEXIS protein (human, UniProt Q9Y2I2 29-510).
T3 construct: not shown: AVEXIS tag (bait or prey)
T3 sequence (looked up): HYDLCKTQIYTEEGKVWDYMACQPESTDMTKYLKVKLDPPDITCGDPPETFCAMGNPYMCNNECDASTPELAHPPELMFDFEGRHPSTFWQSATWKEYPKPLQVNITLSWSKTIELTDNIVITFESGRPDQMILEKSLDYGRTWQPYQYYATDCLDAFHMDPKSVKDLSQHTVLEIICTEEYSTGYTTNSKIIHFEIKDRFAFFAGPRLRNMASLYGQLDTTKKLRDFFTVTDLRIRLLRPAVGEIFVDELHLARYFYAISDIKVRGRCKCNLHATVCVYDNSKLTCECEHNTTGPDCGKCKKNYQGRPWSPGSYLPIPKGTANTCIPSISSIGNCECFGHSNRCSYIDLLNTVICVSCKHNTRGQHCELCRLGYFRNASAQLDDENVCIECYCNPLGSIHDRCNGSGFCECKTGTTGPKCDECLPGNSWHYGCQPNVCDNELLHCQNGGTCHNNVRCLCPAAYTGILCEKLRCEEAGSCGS
Kind of data set: AVEXIS, prey on bait NTNG1; white = No binding.
From the text: as §1

Data set [10] addresses T4, human Netrin-G2, AVEXIS protein (human, UniProt Q96CW9 18-507).
T4 construct: not shown: AVEXIS tag (bait or prey)
T4 sequence (looked up): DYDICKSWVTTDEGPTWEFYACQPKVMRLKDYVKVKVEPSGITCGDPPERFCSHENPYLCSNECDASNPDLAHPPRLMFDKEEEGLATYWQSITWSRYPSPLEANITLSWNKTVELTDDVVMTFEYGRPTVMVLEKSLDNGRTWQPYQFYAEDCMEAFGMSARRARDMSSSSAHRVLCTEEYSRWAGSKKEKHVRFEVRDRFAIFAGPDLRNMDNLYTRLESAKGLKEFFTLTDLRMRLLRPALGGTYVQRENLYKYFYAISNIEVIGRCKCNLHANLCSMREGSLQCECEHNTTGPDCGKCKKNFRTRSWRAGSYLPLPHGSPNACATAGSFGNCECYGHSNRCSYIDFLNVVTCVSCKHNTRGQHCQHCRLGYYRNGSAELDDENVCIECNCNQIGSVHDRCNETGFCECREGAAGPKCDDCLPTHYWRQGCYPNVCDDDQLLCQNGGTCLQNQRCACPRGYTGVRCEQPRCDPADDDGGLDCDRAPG
As to the kind of experiment: AVEXIS, prey on bait NTNG2; white = No binding.
From the text: as §1

Data set [11] concerns the target T5, human Netrin1, recombinant AVEXIS protein (biotinylated when immobilised) (human, UniProt O95631 25-604).
T5 construct: also called NTN1
Kind of data set: AVEXIS, prey on bait NTN1; dark = Binding.
From the text: as §1

Data set [12] addresses B1. As to the kind of experiment: AVEXIS, prey on bait zDraxinA, upper value; white = No binding.
The target in data set [13] is T6, human Netrin-4, AVEXIS protein (human, UniProt Q9HB63 19-628).
T6 construct: not shown: AVEXIS tag (bait or prey)
T6 sequence (looked up): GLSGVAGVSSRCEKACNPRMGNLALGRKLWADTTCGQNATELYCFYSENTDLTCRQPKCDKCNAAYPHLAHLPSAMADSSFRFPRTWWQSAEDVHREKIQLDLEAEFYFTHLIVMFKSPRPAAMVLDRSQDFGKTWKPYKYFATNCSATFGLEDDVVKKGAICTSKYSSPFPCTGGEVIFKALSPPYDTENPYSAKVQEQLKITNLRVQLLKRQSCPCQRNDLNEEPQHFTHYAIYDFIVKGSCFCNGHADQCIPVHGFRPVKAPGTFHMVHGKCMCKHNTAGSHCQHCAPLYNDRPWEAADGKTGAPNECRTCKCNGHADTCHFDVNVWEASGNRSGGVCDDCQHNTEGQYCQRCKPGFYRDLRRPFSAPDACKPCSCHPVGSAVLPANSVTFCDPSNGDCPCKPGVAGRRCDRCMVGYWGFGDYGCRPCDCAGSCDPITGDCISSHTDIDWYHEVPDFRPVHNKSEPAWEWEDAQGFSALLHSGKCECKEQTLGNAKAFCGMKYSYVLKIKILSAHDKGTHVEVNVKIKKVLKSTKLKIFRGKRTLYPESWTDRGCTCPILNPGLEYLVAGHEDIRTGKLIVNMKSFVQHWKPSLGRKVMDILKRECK
Kind of data set: AVEXIS, prey NTN4 on bait DRAXIN.
From the text: as §1

Data set [14] deals with T3, human Netrin-G1, AVEXIS protein. As to the kind of experiment: AVEXIS, prey NTNG1 on bait DRAXIN.
From the text: as §1

Data set [15] deals with T7, human DRAXIN 21 amino acid Netrin binding fragment, AVEXIS prey or bait protein (human).
T7 construct: Tested in both bait and prey orientations; also called human 21 amino acid DRAXIN fragment; derived 21 amino acid peptide; not shown: AVEXIS tag (rat Cd4d3+4 and prey or bait module)
T7 peptide: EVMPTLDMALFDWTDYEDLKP
Kind of data set: AVEXIS, prey on bait DRAXIN 21aa; white = No binding.
From the text: as §1

Data set [16] deals with B1. As to the kind of experiment: AVEXIS, prey on bait zDraxinA, lower value; white = No binding.
In data set [17] the target is T8, biotinylated recombinant human UNC5B (human, UniProt Q8IZJ1 27-377).
T8 construct: Made in HEK293-6E and immobilised on an SA chip
Kind of data set: AVEXIS, prey on bait UNC5B; white = No binding.
From the text: as §1

For data set [18], the target named is T4, human Netrin-G2, AVEXIS protein. As to the kind of experiment: AVEXIS, prey NTNG2 on bait DRAXIN.
From the text: as §1

Data set [19] has as its target T6, human Netrin-4, AVEXIS protein. As to the kind of experiment: AVEXIS, prey on bait NTN4; white = No binding.
From the text: as §1

The target of data set [20] is T8, biotinylated recombinant human UNC5B. Kind of data set: AVEXIS, prey DRAXIN on bait UNC5B.
From the text: as §1

Regarding B1, the binding result in data set [1], in data set [3] and in [6] was “no binding” each time. Moreover, the A486nm is 0.062 in data set [2], 0.059 in data set [4], 0.057 in data set [5] and 0.06 in [7].
Regarding B2, the A486nm in [8] was 0.213; in data set [9] it was 0.077; in data set [10] it was 0.072; in [11], 0.361; in data set [12], 0.06; in [4], 0.058. Also, the A486nm amounted to 0.056 in data set [5]; 0.063 in data set [15]; 0.06 in [16]; 0.078 in data set [17]; 0.076 in [19]. For the same molecule, the binding result in data set [13], in [14], in data set [18] and in [20] was “no binding” each time.
